# Data reported in US20230048360A1 (EUREKA THERAPEUTICS, published 2023).
# B1: GPC3A-34 L2K (bispecific antibody)
# chain: QPVLTQPPSASGTPGQRVTISCSGSSSNIGSNNVIWYQQLPGAAPKLLIYSNHRRPSGVPDRFSGSRSGTSASLAISGLQSEDEADYYCAAWDDSLDGYLFGTGTKVTVLGSRGGGGSGGGGSGGGGSLEMAQVQLQQWGAGLLKPSETLSLTCAVYGGSFSGYYWSWIRQPPGKGLEWIGEINHSGSTNYNPSLKSRVTISVDTSKNQFSLELSSVTAADTAVYYCARGYGGRFDYWGQGTLVTVSSTSGGGGSDVQLVQSGAEVKKPGASVKVSCKASGYTFTRYTMHWVRQAPGQGLEWIGYINPSRGYTNYADSVKGRFTITTDKSTSTAYMELSSLRSEDTATYYCARYYDDHYCLDYWGQGTTVTVSSGEGTSTGSGGSGGSGGADDIVLTQSPATLSLSPGERATLSCRASQSVSYMNWYQQKPGKAPKRWIYDTSKVASGVPARFSGSGSGTDYSLTINSLEAEDAATYYCQQWSSNPLTFGGGTKVEIKHHHHHH
# notes: also called anti-GPC3xCD3 di-scFv derived from GPC3A-34
# B2: GPC3A-37 L2K (bispecific antibody)
# chain: QSVLTQPPSVSAAPGQRVTISCSGTRSNIGSDYVSWYQHLPGTAPKLLVYGDNLRPSGIPDRFSASKSGTSATLGITGLQTGDEADYYCGTWDYTLNGVVFGGGTKLTVLGSRGGGGSGGGGSGGGGSLEMAQVQLVESGGGLVQPGGSLRLSCAASGFTFSSYAMSWVRQAPGKGLEWVSVIYSGGSSTYYADSVKGRFTISRDNSKNTLYLQMNSLRAEDTAVYYCARTSYLNHGDYWGQGTLVTVSSTSGGGGSDVQLVQSGAEVKKPGASVKVSCKASGYTFTRYTMHWVRQAPGQGLEWIGYINPSRGYTNYADSVKGRFTITTDKSTSTAYMELSSLRSEDTATYYCARYYDDHYCLDYWGQGTTVTVSSGEGTSTGSGGSGGSGGADDIVLTQSPATLSLSPGERATLSCRASQSVSYMNWYQQKPGKAPKRWIYDTSKVASGVPARFSGSGSGTDYSLTINSLEAEDAATYYCQQWSSNPLTFGGGTKVEIKHHHHHH
# notes: also called anti-CD3/anti-GPC3 BsAb
# B3: GPC3A-55 L2K (bispecific antibody)
# chain: QPVLTQPPSVSVAPGKTARITCGGNNIGSKSVHWYQQKPGQAPVLVIYYDSDRPSGIPERFSGSNSGNTATLTISRVEAGDEADYYCQVWDSSSDHYVFGTGTKVTVLGSRGGGGSGGGGSGGGGSLEMAQVQLVQSGAEVKKPGASVKVSCKASGYTFTSYYMHWVRQAPGQGLEWMGIINPSGGSTSYAQKFQGRVTMTRDTSTSTVYMELSSLRSEDTAVYYCARWHGGPYDYWGQGTLVTVSSTSGGGGSDVQLVQSGAEVKKPGASVKVSCKASGYTFTRYTMHWVRQAPGQGLEWIGYINPSRGYTNYADSVKGRFTITTDKSTSTAYMELSSLRSEDTATYYCARYYDDHYCLDYWGQGTTVTVSSGEGTSTGSGGSGGSGGADDIVLTQSPATLSLSPGERATLSCRASQSVSYMNWYQQKPGKAPKRWIYDTSKVASGVPARFSGSGSGTDYSLTINSLEAEDAATYYCQQWSSNPLTFGGGTKVEIKHHHHHH
# B4: GPC3A-45 L2K (bispecific antibody)
# chain: QSVLTQPPSVSGTPGQRVIISCPGSTSNIGTNTVNWYQQFPGTAPKLLIYSNNQRPSGVPDRFSGSKSGTSASLAISGLQSEDEADYYCAAWDDSLNGVVFGGGTKLTVLGSRGGGGSGGGGSGGGGSLEMAQMQLVQSGGGLVKPGGSLRLSCAASGFTFSDYYMSWIRQAPGKGLEWVSYISSSGSTIYYADSVKGRFTISRDNAKNSLYLQMNSLRAEDTAVYYCARASDLYGDWGQGTLVTVSSTSGGGGSDVQLVQSGAEVKKPGASVKVSCKASGYTFTRYTMHWVRQAPGQGLEWIGYINPSRGYTNYADSVKGRFTITTDKSTSTAYMELSSLRSEDTATYYCARYYDDHYCLDYWGQGTTVTVSSGEGTSTGSGGSGGSGGADDIVLTQSPATLSLSPGERATLSCRASQSVSYMNWYQQKPGKAPKRWIYDTSKVASGVPARFSGSGSGTDYSLTINSLEAEDAATYYCQQWSSNPLTFGGGTKVEIKHHHHHH
# Columns and labels:
# [1] = target: T1, cell surface-bound human GPC3 on GPC3+ HepG2 cells (human, UniProt P51654 25-560, GPI anchor and heparin sulfate side chains, as the filing describes native GPC3); assay: FACS titration on GPC3+ HepG2 cells, anti-His detection
# T1 construct: Endogenous GPC3 of the HepG2 line; also called Glypican 3; native GPC3
# Procedure: (§1) APC-conjugated anti-His tag mouse antibody (R&D Systems) was added in a volume of 100 μl, a 20-fold dilution of 5% FBS in PBS and 0.05% NaN₃ and incubated for 1 hour at 4° C. in the dark, then washed twice with PBS. The cells were fixed in 3-fold dilution of fixation buffer (BioLegend) in PBS in a volume of 150 μl. As a separate control, HepG2 cells were also incubated with APC-conjugated anti-His tag mouse antibody (R&D Systems) in the absence of any L2K bispecific antibody.
# [2] = target: T1, cell surface-bound human GPC3 on GPC3+ …; assay: apparent Kd from FACS on GPC3+ HepG2 cells
# Procedure: as §1
# [3] = target: T2, biotinylated recombinant human GPC3(560) (human, biotin on the C-terminal BirA substrate peptide ; Biotin on a lysine of the C-terminal BirA substrate peptide, which is not in the letters.); assay: SPR, Biacore X100, single-cycle kinetics, bt-GPC3(560) captured on chip, 1:1 model
# T2 construct: Made in E. coli BL21 (pET-27b) from inclusion bodies and biotinylated with BirA; also called bt-GPC3(560); soluble bt-GPC3(560) protein
# Procedure: All of the proteins used in the assay were diluted in HBS-E buffer prior to use. Briefly, 5-10 μg/ml of bt-GPC3₍₅₆₀₎ was immobilized onto a sensor chip pre-functionalized with CAPture Reagent and injected onto the flow cell. Affinity of the L2K bispecific antibodies for immobilized antigen was measured by injection of the various bispecific antibodies at 0.3-5 mg/ml with a 90 second association phase followed by a 90 second dissociation phase at a flow rate of 30 μl/min. At the end of each run, the surface of the sensor chip was regenerated using the reagents provided in the Biotin CAPture kit. Binding constants were determined by nonlinear regression analysis using a 1:1 binding model (BIACORE™ X-100 evaluation software, FIGS. 15A and 15B). The association-on-rate-kₒₙ, affinity constant-kₐ, dissociation constant-kd, and equilibrium dissociation constant-Kd were then calculated for each L2K clone (Table 14).
Binder,EC50 [1],Kd [2],Kd [3],koff [3],kon [3]
B1,0.11 mg/L,2 nM,3.5 nM,0.0014 s⁻¹,400000 M⁻¹ s⁻¹
B2,0.048 mg/L,0.92 nM,5.1 nM,0.00289 s⁻¹,567000 M⁻¹ s⁻¹
B3,0.045 mg/L,0.86 nM,2.3 nM,0.00161 s⁻¹,705000 M⁻¹ s⁻¹
B4,0.12 mg/L,2.4 nM,3.5 nM,0.000455 s⁻¹,128000 M⁻¹ s⁻¹
